Source: patent US20100086555A1
Like-named read-outs stand apart in the source and are kept apart here.

What was measured:
[1] = target: H1 HA A/SI/3/06 (ELISA antigen) (influenza A virus A/SI/3/06 (H1)); experiment: ELISA
[2] = target: H1 HA A/Texas/3/99 (ELISA antigen) (influenza A virus A/Texas/3/99 (H1)); experiment: ELISA
[3] = target: H5 HA A/INDO/5/05 (ELISA antigen) (influenza A virus A/INDO/5/05 (H5N1)); experiment: ELISA
[4] = target: H9 HA A/HK/1073/99 (ELISA antigen) (influenza A virus A/HK/1073/99 (H9)); experiment: ELISA
[5] = target: recombinant trimeric H5 HA (A/VN/1203/04) (influenza A virus A/VN/1203/04 (H5N1)); experiment: ELISA
[6] = target: H1 HA A/CA/07/09 (on infectious virus) (influenza A virus A/CA/07/09 (H1N1)); experiment: cell-based or functional assay
[7] = target: H1 HA A/NC/20/99 (on infectious virus) (influenza A virus A/NC/20/99 (H1N1)); experiment: cell-based or functional assay
[8] = target: H1 HA A/NJ/76 (on infectious virus) (influenza A virus A/NJ/76 (H1N1)); experiment: cell-based or functional assay
[9] = target: H1 HA A/PR/8/34 (on infectious virus) (influenza A virus A/PR/8/34 (H1N1)) (UniProt P03452); experiment: cell-based or functional assay
[10] = target: H1 HA A/SI/3/06 (on infectious virus) (influenza A virus A/SI/3/06 (H1N1)); experiment: cell-based or functional assay
[11] = target: H1 HA A/swine/Iowa/31 (on infectious virus) (influenza A virus A/swine/Iowa/31 (H1N1)); experiment: cell-based or functional assay
[12] = target: H3 HA A/WY/3/03 (on infectious virus) (influenza A virus A/WY/3/03 (H3N2)); experiment: cell-based or functional assay
[13] = target: H5 HA A/Anhui/1/5 (on pseudotypes) (influenza A virus A/Anhui/1/5 (H5N1)); experiment: cell-based or functional assay
[14] = target: H5 HA A/HK/213/03 (on pseudotypes) (influenza A virus A/HK/213/03 (H5N1)); experiment: cell-based or functional assay
[15] = target: H5 HA A/HK/491/97 (on pseudotypes) (influenza A virus A/HK/491/97 (H5N1)); experiment: cell-based or functional assay
[16] = target: H5 HA A/INDO/5/05 (on pseudotypes and on infectious virus) (influenza A virus A/INDO/5/05 (H5N1)); experiment: cell-based or functional assay
[17] = target: H5 HA A/VN/1194/04 (on pseudotypes) (influenza A virus A/VN/1194/04 (H5N1)); experiment: cell-based or functional assay
[18] = target: H5 HA A/VN/1203/04 (on pseudotypes and on infectious virus) (influenza A virus A/VN/1203/04 (H5N1)); experiment: cell-based or functional assay
[19] = target: H5 HA A/WS/Mong/244/05 (on pseudotypes) (influenza A virus A/WS/Mong/244/05 (H5N1)); experiment: cell-based or functional assay
[20] = target: H6 HA A/teal/HK/WN312/97 (on infectious virus) (influenza A virus A/teal/HK/W312/97 (H6N1)); experiment: cell-based or functional assay
[21] = target: H9 HA A/HK/1073/99 (on infectious virus) (influenza A virus A/HK/1073/99 (H9N2)); experiment: cell-based or functional assay
[22] = target: H9 HA A/ck/HK/G9/97 (on infectious virus) (influenza A virus A/ck/HK/G9/97 (H9N2)); experiment: cell-based or functional assay
[23] = target: H1 HA A/CA/07/09 (on infectious virus) (influenza A virus A/CA/07/09 (H1N1)); experiment: cell-based or functional assay; remark: listed apart in the source
[24] = target: H1 HA A/NJ/76 (on infectious virus) (influenza A virus A/NJ/76 (H1N1)); experiment: cell-based or functional assay; remark: listed apart in the source
[25] = target: H1 HA A/PR/8/34 (on infectious virus) (influenza A virus A/PR/8/34 (H1N1)) (UniProt P03452); experiment: cell-based or functional assay; remark: listed apart in the source
[26] = target: H1 HA A/swine/Iowa/31 (on infectious virus) (influenza A virus A/swine/Iowa/31 (H1N1)); experiment: cell-based or functional assay; remark: listed apart in the source
[27] = target: H5 HA A/VN/1203/04 (on pseudotypes and on infectious virus) (influenza A virus A/VN/1203/04 (H5N1)); experiment: cell-based or functional assay; remark: listed apart in the source
[28] = target: recombinant trimeric H5 HA (A/VN/1203/04) (influenza A virus A/VN/1203/04 (H5N1)); experiment: competition ELISA on recombinant trimeric H5 HA; competitor C179
[29] = target: recombinant trimeric H5 HA (A/VN/1203/04) (influenza A virus A/VN/1203/04 (H5N1)); experiment: competition ELISA on recombinant trimeric H5 HA; competitor FLD21
[30] = target: H2 HA A/JP/305/57 (on infectious virus) (influenza A virus A/JP/305/57 (H2N2)) (UniProt P03451); experiment: cell-based or functional assay

Binder | K50 [1] [µg/mL] | K50 [2] [µg/mL] | K50 [3] [µg/mL] | K50 [4] [µg/mL] | K50 [5] [µg/mL] | Neutralization H1N1 IC90 [7] [µg/mL] | Neutralization of infectious viruses (IC50) [7] [µg/mL] | Neutralization of infectious viruses (IC50) [9] [µg/mL] | Neutralization of infectious viruses (IC50) [10] [µg/mL] | Neutralization of HA-pseudotypes (IC90) [13] [µg/mL] | Neutralization of HA-pseudotypes (IC90) [14] [µg/mL] | Neutralization of HA-pseudotypes (IC90) [15] [µg/mL] | Neutralization of HA-pseudotypes (IC90) [16] [µg/mL] | Neutralization of HA-pseudotypes (IC90) [17] [µg/mL] | Neutralization of HA-pseudotypes (IC90) [18] [µg/mL] | Neutralization of HA-pseudotypes (IC90) [19] [µg/mL] | Neutralization of infectious viruses (IC50) [21] [µg/mL] | Neutralization of infectious viruses (IC50) [22] [µg/mL] | Competition (%) [28] [%] | Competition (%) [29] [%] | further results
FE43 (antibody, V domains shown) VH: QVHLVQSGAEVKKPGSSVRLSCSASGGPFSGFAISWLRQAPGQGLEWLGGISAVFGTATYAQKFQGRVTITADQFTSTSHMDLSRLTYDDTAVYYCARSGGYLPQNNWIDPWGQGTLVIVSS VL: DIVMTQTPLSLSVTPGQPASISCKSSQSLLHSDGKTYLYWYLQKPGQSPQLLIYEVSNRFSGVPDRFSGSGSGTDFTLKISRVEAEDVGVYYCMQNILLPLTFGGGTKVEIK | 0.206 | 0.013 | 4.54 | 0.307 | 0.029 | 6.2 | 40 | 4 | 9 | 0.137 | 0.07 | 0.053 | 0.39 | 0.061 | 0.146 | 0.186 | 50 | 4 | 100 | < 20 | Hemagglutination inhibition titer [6]: < 5; Hemagglutination inhibition titer [8]: < 5; Hemagglutination inhibition titer [9]: < 5; Neutralization H1N1 IC90 [10]: 6.2 µg/mL; Hemagglutination inhibition titer [11]: 20; Neutralization H3N2 IC50 [12]: > 50 µg/mL; Neutralization of infectious viruses (IC50) [16]: 25 µg/mL; Neutralization H5pp IC90 [17]: 0.03 µg/mL; Hemagglutination inhibition titer [18]: < 5; Neutralization H5N1 IC50 [18]: > 50 µg/mL; Neutralization of infectious viruses (IC50) [20]: 20 µg/mL; Neutralization H9N2 IC50 [22]: 0.02 µg/mL; Neutralization of infectious viruses (IC50) [23]: 4 µg/mL; Neutralization of infectious viruses (IC50) [24]: 9 µg/mL; Neutralization of infectious viruses (IC50) [25]: 1.5 µg/mL; Neutralization of infectious viruses (IC50) [26]: 3 µg/mL; Neutralization of infectious viruses (IC50) [27]: > 50 µg/mL
FC6 (antibody, V domains shown) VH: QGQLVQSGAEVKKSGSSVKVSCKTSGGTFNSHAISWVRQAPGQGLEWIGGIIPMFGTTNYAQKLKGRIAITADQLPTTAYLELSSLRSEDTAVYYCARGQRYYYDRDGMDVWGQGTMVTVSS VL: EIVMTQTPLSLSVTPGQPASISCRSSQSLLHSDGKTYLYWYLQKPGQPPQLLISEVFNRFSGVPDRFSGSGSGTDFTLKISRVEAEDVGVYYCMQSLQLPLTFGGGTKVEIK | 1.47 | 0.066 | – | 0.15 | 0.157 | 12.5 | 40 | 16 | 18 | 0.112 | 0.077 | 0.081 | 0.242 | 0.061 | 0.096 | 0.073 | 36 | 9 | 100 | < 20 | Neutralization H1N1 IC90 [10]: 12.5 µg/mL; Neutralization of infectious viruses (IC50) [16]: 31 µg/mL; Neutralization H5pp IC90 [17]: 0.04 µg/mL; Neutralization of infectious viruses (IC50) [20]: 63 µg/mL
FB139 (antibody, V domains shown) VH: QVQLVQSGAEVKKAGSSVKVSCQSSGVTFSMYAVSWVRQAPGQGLEWMGGIIPLFGTTTYAQKFEGRLTITADTSTNMAYLELRSLRSEDTAVYFCARAGTTVTRFNWFDPWGQGTLVTVSS VL: EVVLTQSPGTLSLSPGQRATLSCRASQSVSSSYLAWYQQKPGQAPRLLIYDASNRATGIPDRFSGSGSGTDFTLTISRLEPEDFAVYYCQQYGSSPYTFGQGTKLEIK | 1.38 | 0.06 | 0.163 | 0.066 | 0.033 | – | 36 | 5 | 4 | 0.022 | 0.019 | 0.019 | 0.106 | 0.04 | 0.034 | 0.035 | 20 | 6 | 100 | < 20 | Neutralization of infectious viruses (IC50) [30]: 50 µg/mL; Neutralization of infectious viruses (IC50) [16]: 36 µg/mL; Neutralization of infectious viruses (IC50) [18]: 36 µg/mL
FE53 (antibody, V domains shown) VH: QVQLVQSGAEVKKPGSSVKVSCKASGVTSSNYPITWVRQAPGQGLEWMGGVLPLFGVTNYAQKFQGRVTISADKSTNTAYMELSSLRSEDTAVYYCARGKRPGYCSGGVCSSDYWGQGTLVTVSS VL: DIQMTQSPSSLSASVGDRVSITCQASQDISRYLNWYQQKPGEAPKLLIYDASNLETGVPSRFSGSGSGTDFTFTISSLQPEDIATYFCQQYGYLPLTFGPGTKVDSK | 0.375 | 0.015 | 0.084 | 0.014 | 0.015 | 6.2 | 37 | – | 6 | 0.065 | 0.066 | 0.046 | 0.491 | 0.008 | 0.098 | 0.077 | 8 | 2 | 100 | < 20 | Neutralization H1N1 IC90 [10]: 6.2 µg/mL; Neutralization H3N2 IC50 [12]: > 50 µg/mL; Neutralization H5pp IC90 [17]: 0.008 µg/mL; Neutralization H5N1 IC50 [18]: > 50 µg/mL; Neutralization H9N2 IC50 [22]: 0.1 µg/mL
